Assay results taken from US20250043004A1 (Janssen / Centocor, published 2025).

Assays:
[1] = molecular target: T1, T cell receptor Vβ17 on human T cells (human); experiment: flow cytometry, human pan T cells, donor 1; antibody has no CD28 arm
T1 construct: whole, on cells; Vβ17+ fraction (about 5%) of human pan T cells, αβ-enriched T cells or M1-stimulated T cells; also called TCR Vβ17; Vb17

[2] = molecular target: T1, T cell receptor Vβ17 on human T cells; experiment: flow cytometry, human pan T cells, donor 2; antibody has no CD28 arm
BCMA [3] = molecular target: T2, BCMA (human, UniProt Q02223 1-184); experiment: flow cytometry, H929 cells; antibody has no CD28 arm
T2 construct: whole, on cells; On NCI-H929 myeloma cells, which also carry CD28; also called B-cell maturation antigen; TNFRSF17
T2 sequence (looked up): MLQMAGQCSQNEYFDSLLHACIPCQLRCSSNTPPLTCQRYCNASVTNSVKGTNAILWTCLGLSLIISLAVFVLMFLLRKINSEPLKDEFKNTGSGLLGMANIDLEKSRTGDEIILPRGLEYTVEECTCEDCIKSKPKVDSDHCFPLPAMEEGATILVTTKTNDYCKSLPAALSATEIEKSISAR

CD28 [4] = molecular target: T3, CD28 (human, UniProt P10747 19-220); experiment: flow cytometry, human pan T cells, donor 2
T3 construct: whole, on cells; On human pan T cells and on H929 myeloma cells; the assay field says which; also called Cluster of Differentiation 28
Procedure: (§1) Binding assay. […] Post Pan T cell isolation. 0.1×10⁶ cells were seeded per well of a 96 well V-bottom plate. Cells were stained with the fixable violet live/dead stain (L34955, Thermofisher) for 20 mins on ice in dark according to the manufacturer's protocol. Post staining cells were washed with FACS buffer (PBS+2% FBS) by spinning at 1500 rpm for 5 mins. Supernatant was discarded and cells were suspended in 100 μl the respective antibody dilutions with a starting concentration of 5 g/ml and 3-fold serial dilutions. Antibody dilutions were prepared in FACS buffer. Cells were incubated with the antibody dilutions for 30 mins at 37° C. At the end of the incubation period, cells were washed twice with FACS buffer as above followed by staining with PE conjugated Goat polyclonal antibody to human IgG (ab98596, Abcam) at a 1:50 dilution in FACS buffer. Cells were incubated with the secondary antibody for 30 mins on ice. At the end of incubation period the cells were washed with FACS buffer as above. […] Cells were pelleted and resuspended in FACS buffer for acquisition on the NOVOCYTE flow cytometer (ACEA Biosciences). […] Samples were analyzed by gating on the live cells and percentage binding was obtained by subtracting the background fluorescence from the secondary only control.

CD28 [5] = molecular target: T3, CD28; experiment: flow cytometry, human pan T cells, donor 2; remark: listed apart in the source
CD28 [6] = molecular target: T3, CD28; experiment: flow cytometry, H929 cells; antibody has no BCMA arm
BCMA [7] = molecular target: T2, BCMA; experiment: flow cytometry, H929 cells (BCMA+, CD28+); whole-cell EC50, antibody has BCMA and CD28 arms
CD28 [8] = molecular target: T3, CD28; experiment: as above
BCMA [9] = molecular target: T2, BCMA; experiment: as above; remark: listed apart in the source
Procedure: (§2) Post Pan T cell isolation. 0.1×10⁶ cells were seeded per well of a 96 well V-bottom plate. Cells were stained with the fixable violet live/dead stain (L34955, Thermofisher) for 20 mins on ice in dark according to the manufacturer's protocol. Post staining cells were washed with FACS buffer (PBS+2% FBS) by spinning at 1500 rpm for 5 mins. Supernatant was discarded and cells were suspended in 100 μl the respective antibody dilutions with a starting concentration of 5 g/ml and 3-fold serial dilutions. Antibody dilutions were prepared in FACS buffer. Cells were incubated with the antibody dilutions for 30 mins at 37° C. At the end of the incubation period, cells were washed twice with FACS buffer as above followed by staining with PE conjugated Goat polyclonal antibody to human IgG (ab98596, Abcam) at a 1:50 dilution in FACS buffer. Cells were incubated with the secondary antibody for 30 mins on ice. At the end of incubation period the cells were washed with FACS buffer as above. […] Cells were pelleted and resuspended in FACS buffer for acquisition on the NOVOCYTE flow cytometer (ACEA Biosciences). For binding assays using the H929 cells, 0.1×10⁶ H929 cells were seeded per well of a 96 well V-bottom plate and stained as above. Samples were analyzed by gating on the live cells and percentage binding was obtained by subtracting the background fluorescence from the secondary only control.

CD28 [10] = molecular target: T3, CD28; experiment: as above; remark: listed apart in the source
Procedure: as §2

CD28 [11] = molecular target: T3, CD28; experiment: flow cytometry, human pan T cells
Procedure: Post Pan T cell isolation. 0.1×10⁶ cells were seeded per well of a 96 well V-bottom plate. Cells were stained with the fixable violet live/dead stain (L34955, Thermofisher) for 20 mins on ice in dark according to the manufacturer's protocol. Post staining cells were washed with FACS buffer (PBS+2% FBS) by spinning at 1500 rpm for 5 mins. Supernatant was discarded and cells were suspended in 100 μl the respective antibody dilutions with a starting concentration of 5 g/ml and 3-fold serial dilutions. Antibody dilutions were prepared in FACS buffer. Cells were incubated with the antibody dilutions for 30 mins at 37° C. At the end of the incubation period, cells were washed twice with FACS buffer as above followed by staining with PE conjugated Goat polyclonal antibody to human IgG (ab98596, Abcam) at a 1:50 dilution in FACS buffer. Cells were incubated with the secondary antibody for 30 mins on ice. At the end of incubation period the cells were washed with FACS buffer as above. […] Cells were pelleted and resuspended in FACS buffer for acquisition on the NOVOCYTE flow cytometer (ACEA Biosciences). For binding assays using the H929 cells, 0.1×10⁶ H929 cells were seeded per well of a 96 well V-bottom plate and stained as above. Samples were analyzed by gating on the live cells and percentage binding was obtained by subtracting the background fluorescence from the secondary only control. […]

CD28 [12] = molecular target: T3, CD28; experiment: flow cytometry, human pan T cells, donor 1
CD28 [13] = molecular target: T3, CD28; experiment: flow cytometry, human pan T cells, donor 1; remark: listed apart in the source
Procedure: as §1

PSMA [14] = molecular target: T4, PSMA (human, UniProt Q04609 1-750); experiment: flow cytometry, C4-2B cells
T4 construct: whole, on cells; On LnCaP and C4-2B cells; also called prostate-specific membrane antigen

PSMA [15] = molecular target: T4, PSMA; experiment: flow cytometry, LnCaP cells

T1 sequence (A0A075B6N1 22-114): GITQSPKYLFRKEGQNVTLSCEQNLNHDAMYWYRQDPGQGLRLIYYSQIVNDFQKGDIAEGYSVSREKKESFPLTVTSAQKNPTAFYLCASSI
T4 sequence (Q04609 whole entry): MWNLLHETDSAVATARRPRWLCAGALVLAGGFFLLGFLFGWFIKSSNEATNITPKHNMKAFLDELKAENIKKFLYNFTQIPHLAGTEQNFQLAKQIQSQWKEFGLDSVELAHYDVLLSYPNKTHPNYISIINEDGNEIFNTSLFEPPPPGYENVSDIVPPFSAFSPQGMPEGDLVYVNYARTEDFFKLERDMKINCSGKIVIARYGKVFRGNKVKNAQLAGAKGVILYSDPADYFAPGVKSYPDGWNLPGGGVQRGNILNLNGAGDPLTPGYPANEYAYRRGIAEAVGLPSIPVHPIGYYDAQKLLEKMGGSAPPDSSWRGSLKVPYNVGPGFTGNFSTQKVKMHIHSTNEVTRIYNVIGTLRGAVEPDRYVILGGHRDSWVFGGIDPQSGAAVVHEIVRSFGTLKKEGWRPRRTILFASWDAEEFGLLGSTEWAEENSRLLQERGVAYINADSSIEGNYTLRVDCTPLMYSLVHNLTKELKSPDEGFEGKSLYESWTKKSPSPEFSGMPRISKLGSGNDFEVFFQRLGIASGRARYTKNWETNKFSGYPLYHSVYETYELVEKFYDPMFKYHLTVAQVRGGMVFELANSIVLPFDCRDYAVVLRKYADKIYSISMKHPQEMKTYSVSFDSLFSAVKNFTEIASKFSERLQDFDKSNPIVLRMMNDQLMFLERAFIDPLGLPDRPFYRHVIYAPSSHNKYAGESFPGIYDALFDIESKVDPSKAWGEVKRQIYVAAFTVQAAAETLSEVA

B1: VB28B40 (bispecific antibody, human IgG1, kappa, L234A L235A)
scFv: DIQMTQSPSSLSASVGDRVTITCRSSQSLVHSSGNTYLHWYQQKPGKAPKFLIYKVSNRFSGVPSRFSGSGSGTDFTLTISSLQPEDFATYYCSQSTHVPFTFGQGTKLEIKGGSEGKSSGSGSESKSTGGSQVQLQESGPGLVKPSETLSLTCTVSGYSITSGYFWNWIRQPPGKGLEWIGYISYDGSNNYNPSLKSRVTISRDTSKNQFSLKLSSVTAADTAVYYCASPSPGTGYAVDYWGQGTLVTVSSEPKSSDKTHTCPPCPAPEAAGGPSVFLFPPKPKDTLMISRTPEVTCVVVSVSHEDPEVKFNWYVDGVEVHNAKTKPREEQYNSTYRVVSVLTVLHQDWLNGKEYKCKVSNKALPAPIEKTISKAKGQPREPQVYTLPPSREEMTKNQVSLWCLVKGFYPSDIAVEWESNGQPENNYKTTPPVLDSDGSFFLYSKLTVDKSRWQQGNVFSCSVMHEALHNHYTQKSLSLSPGK
heavy: not shown
light: not shown
notes: Vβ17 × null × BCMA, human IgG1; not used; also called Vβ28B40
Q: With B1 as the binder, how does the EC50 [1] read?
A: 1.12 µg/mL

Q: What about the EC50 [2] of the same binder?
A: 1.21 µg/mL

Q: And the EC50 (BCMA [3])?
A: 0.121 µg/mL

B2: B17B619 (bispecific antibody, human IgG1)
heavy: QVQLQESGPGLVKPSETLSLTCTVSGYSITSGYFWNWIRQPPGKGLEWIGYISYDGSNNYNPSLKSRVTISRDTSKNQFSLKLSSVTAADTAVYYCASPSPGTGYAVDYWGQGTLVTVSSASTKGPSVFPLAPSSKSTSGGTAALGCLVKDYFPEPVTVSWNSGALTSGVHTFPAVLQSSGLYSLSSVVTVPSSSLGTQTYICNVNHKPSNTKVDKKVEPKSCDKTHTCPPCPAPEAAGGPSVFLFPPKPKDTLMISRTPEVTCVVVSVSHEDPEVKFNWYVDGVEVHNAKTKPREEQYNSTYRVVSVLTVLHQDWLNGKEYKCKVSNKALPAPIEKTISKAKGQPREPQVYVYPPSREEMTKNQVSLTCLVKGFYPSDIAVEWESNGQPENNYKTTPPVLDSDGSFALVSKLTVDKSRWQQGNVFSCSVMHEALHNRFTQKSLSLSPG
light: DIQMTQSPSSLSASVGDRVTITCRSSQSLVHSSGNTYLHWYQQKPGKAPKFLIYKVSNRFSGVPSRFSGSGSGTDFTLTISSLQPEDFATYYCSQSTHVPFTFGQGTKLEIKRTVAAPSVFIFPPSDEQLKSGTASVVCLLNNFYPREAKVQWKVDNALQSGNSQESVTEQDSKDSTYSLSSTLTLSKADYEKHKVYACEVTHQGLSSPVTKSFNRGEC
scFv-Fc: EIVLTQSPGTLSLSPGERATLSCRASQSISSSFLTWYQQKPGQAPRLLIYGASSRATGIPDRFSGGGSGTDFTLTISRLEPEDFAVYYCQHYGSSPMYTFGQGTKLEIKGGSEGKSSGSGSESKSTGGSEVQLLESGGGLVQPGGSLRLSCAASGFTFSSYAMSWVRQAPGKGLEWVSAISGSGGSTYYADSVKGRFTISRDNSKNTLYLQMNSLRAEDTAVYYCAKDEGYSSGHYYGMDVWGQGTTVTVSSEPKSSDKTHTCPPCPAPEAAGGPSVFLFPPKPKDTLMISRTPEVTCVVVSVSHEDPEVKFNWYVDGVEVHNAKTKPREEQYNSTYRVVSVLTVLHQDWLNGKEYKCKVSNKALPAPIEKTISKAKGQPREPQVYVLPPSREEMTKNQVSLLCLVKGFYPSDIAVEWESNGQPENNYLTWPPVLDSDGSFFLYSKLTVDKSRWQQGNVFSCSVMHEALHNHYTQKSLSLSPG
notes: Human IgG1; also called Vβ17-Fab×BCMA-ScFv; Vb17-B17B21-N33S-Fab-RF × BCMB519-LH-scFv; copies: 1 + 1 + 1
Q: For B2, which EC50 [1] is on record?
A: 0.159 µg/mL

Q: And the EC50 [2]?
A: 0.124 µg/mL

Q: What about the EC50 (BCMA [3]) of the same binder?
A: 0.122 µg/mL

B3: VB28B33 (bispecific antibody)
scFv: not shown
heavy: QVQLQQPGSELVRPGASVKLSCKASGYTFTSYWMHWVKQRHGQGLEWIGNIYPGSGRTNYDEKFKSKGTLTVDTSSRTAYMHLSSLTSEDSAVYYCTREHYGSNSHPMDYWGQGTSVTVSSASTKGPSVFPLAPSSKSTSGGTAALGCLVKDYFPEPVTVSWNSGALTSGVHTFPAVLQSSGLYSLSSVVTVPSSSLGTQTYICNVNHKPSNTKVDKKVEPKSCDKTHTCPPCPAPEAAGGPSVFLFPPKPKDTLMISRTPEVTCVVVSVSHEDPEVKFNWYVDGVEVHNAKTKPREEQYNSTYRVVSVLTVLHQDWLNGKEYKCKVSNKALPAPIEKTISKAKGQPREPQVYTLPPSREEMTKNQVSLSCAVKGFYPSDIAVEWESNGQPENNYKTTPPVLDSDGSFFLVSKLTVDKSRWQQGNVFSCSVMHEALHNRFTQKSLSLSPGK
light: DIQMTQSPSSLSASVGDRVTITCRSSQSLVHSSGNTYLHWYQQKPGKAPKFLIYKVSNRFSGVPSRFSGSGSGTDFTLTISSLQPEDFATYYCSQSTHVPFTFGQGTKLEIKGGSEGKSSGSGSESKSTGGSQVQLQESGPGLVKPSETLSLTCTVSGYSITSGYFWNWIRQPPGKGLEWIGYISYDGSNNYNPSLKSRVTISRDTSKNQFSLKLSSVTAADTAVYYCASPSPGTGYAVDYWGQGTLVTVSSGGSEGKSSGSGSESKSTGGSDIQMTQSPASLSASVGETVTITCGASENIYGSLNWYQRKQGKSPQLLIYGATNLADGMSSRFSGSGSGRQFSLKISSLHPDDVATYYCQNLLSTPYTFGGGTKLELKRTVAAPSVFIFPPSDEQLKSGTASVVCLLNNFYPREAKVQWKVDNALQSGNSQESVTEQDSKDSTYSLSSTLTLSKADYEKHKVYACEVTHQGLSSPVTKSFNRGEC
notes: Null × CD28 × Vβ17, human IgG1; also called Vβ28B33
Q: Which results are given for B3?
A: EC50 (CD28 [4]): > 10 µg/mL; EC50 (CD28 [5]): > 10 µg/mL; EC50 (CD28 [6]): 1.4 µg/mL

B4: VB28B36 (bispecific antibody)
scFv: not shown
heavy: B3 heavy
light: not shown
notes: Null × CD28 × BCMA, human IgG1; also called Vβ28B36
Q: How did the EC50 (BCMA [7]) turn out when B4 was run?
A: < 0.0046 µg/mL

Q: What about the EC50 (CD28 [8]) of the same binder?
A: < 0.0046 µg/mL

B5: VB28B7 (bispecific antibody)
heavy 1: not shown
light 1: DIQMTQSPASLSASVGETVTITCGASENIYGSLNWYQRKQGKSPQLLIYGATNLADGMSSRFSGSGSGRQFSLKISSLHPDDVATYYCQNLLSTPYTFGGGTKLELKRTVAAPSVFIFPPSDEQLKSGTASVVCLLNNFYPREAKVQWKVDNALQSGNSQESVTEQDSKDSTYSLSSTLTLSKADYEKHKVYACEVTHQGLSSPVTKSFNRGEC
heavy 2: not shown
light 2: B5 light 1
notes: also called Vβ28B7; C28B19 × Null × BCMB519
Q: For B5, which EC50 (BCMA [9]) is on record?
A: 0.1 µg/mL

Q: And the EC50 (CD28 [10])?
A: 0.1 µg/mL

Q: And the EC50 (CD28 [11])?
A: 0.06 µg/mL

B6: VB28B38 (bispecific antibody, human IgG1, kappa, L234A L235A)
scFv: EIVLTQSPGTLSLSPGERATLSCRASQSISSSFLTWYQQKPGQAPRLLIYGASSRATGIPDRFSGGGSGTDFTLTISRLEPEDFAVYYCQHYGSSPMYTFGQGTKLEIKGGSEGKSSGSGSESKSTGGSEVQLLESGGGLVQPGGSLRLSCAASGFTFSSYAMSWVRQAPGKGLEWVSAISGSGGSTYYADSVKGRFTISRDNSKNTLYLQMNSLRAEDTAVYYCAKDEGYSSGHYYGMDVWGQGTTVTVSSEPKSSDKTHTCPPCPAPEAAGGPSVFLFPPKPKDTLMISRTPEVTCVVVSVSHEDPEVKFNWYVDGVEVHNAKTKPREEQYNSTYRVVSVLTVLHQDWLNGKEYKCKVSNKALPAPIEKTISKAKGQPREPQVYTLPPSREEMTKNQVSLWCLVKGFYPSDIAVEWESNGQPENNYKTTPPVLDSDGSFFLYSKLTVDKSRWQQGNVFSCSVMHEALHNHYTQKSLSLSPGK
heavy: B3 heavy
light: B5 light 1
notes: BCMA × CD28, human IgG1; also called Vβ28B38
Q: With B6 as the binder, how does the EC50 (BCMA [7]) read?
A: < 0.0046 µg/mL

Q: And the EC50 (CD28 [8])?
A: < 0.0046 µg/mL

Q: And the EC50 (CD28 [5])?
A: 1.08 µg/mL

Q: And the EC50 (CD28 [12])?
A: 1.27 µg/mL

B7: VB28B31 (bispecific antibody, human IgG1, kappa, L234A L235A)
scFv: not shown
heavy: B3 heavy
light: B5 light 1
notes: PSMA × CD28, human IgG1; also called Vβ28B31
Q: Which EC50 (CD28 [4]) does the source give for B7 here?
A: 0.95 µg/mL

Q: And the EC50 (CD28 [13])?
A: 1.29 µg/mL

Q: And the EC50 (PSMA [14])?
A: 1.22 µg/mL

Q: What about the EC50 (PSMA [15]) of the same binder?
A: 0.15 µg/mL
